From patent US20240238445A1, “INHIBITORS AND USES THEREOF” (NEURACLE SCIENCE CO., LTD., priority 2021, published 2024)

Tests used:
[1] = target: binding of FAM19A5 protein to LRRC4B (amino acids 453-576)-hFc (Homo sapiens, UniProt Q7Z5A7); assay: Competitive inhibition assay, plate coated with LRRC4B (amino acids 453-576)-hFc, peptides at 20 nM; details: 20 nM peptide, FAM19A5 1 ng/mL
From the text: (§1) Next, to assess whether polypeptides comprising the binding domains of LRRC4 or LRRC4C proteins can have similar inhibitory effects on LRRC4B protein binding, the following synthetic peptides were constructed: (1) FBC4-23 (contains the binding domain of the LRRC4 protein, i.e., YSFFTTVTVETTE); and (2) FBC4C-23 (contains the binding domain of the LRRC4C protein, i.e., FSYFSTVTVETME). Then, the ability of the peptides to inhibit the binding of LRRC4 protein family members to FAM19A5 protein was assessed using a competitive inhibition assay. Briefly, plates were coated with 100 nM of either LRRC4B protein fragment #1 (amino acids 36-576 of SEQ ID NO: 2; SEQ ID NO: 5) or LRRC4B protein fragment #2 (amino acids 453-576 of SEQ ID NO: 2; SEQ ID NO: 7). Then, recombinant FAM19A5 protein (5 ng/ml for plates coated with LRRC4B fragment #1; and 1 ng/mL for plates coated with LRRC4B fragment #2) was added to the plates in combination with 20 nM of the FBC4-23, FBC4C-23, and FB-20 peptides. The plates were incubated at 37° C. and then, the amount of FAM19A5 protein bound to the coated LRRC4B protein fragments was assessed using HRP-conjugated anti-FAM19A5 (1-65) antibody.
(§2) Next, to determine the minimal sequence required to inhibit the interaction of FAM19A5 and members of the LRRC4 protein family, ten FB-20 peptide variants were constructed by serially deleting one or more amino acids from the N-terminus or C-terminus of the FB-20 peptide. Then, a competitive inhibition assay was used to assess the ability of the different FB-20 peptide variants to inhibit the interaction between FAM19A5 and LRRC4B protein. Again, plates were coated with 100 nM of either LRRC4B protein fragment #1 (amino acids 36-576 of SEQ ID NO: 2; SEQ ID NO: 5) or LRRC4B protein fragment #2 (amino acids 453-576 of SEQ ID NO: 2; SEQ ID NO: 7). Then, recombinant FAM19A5 protein (5 ng/ml for plates coated with LRRC4B fragment #1; and 1 ng/mL for plates coated with LRRC4B fragment #2) was added to the plates in combination with 20 nM of the different peptides described above. After incubating the plates at 37° C., the amount of FAM19A5 protein bound to the coated LRRC4B protein fragments was assessed using HRP-conjugated anti-FAM19A5 (1-65) antibody.
To identify the critical amino acid residues, multiple FB-20 peptide mutants were constructed, in which the individual residues of the core binding domain (i.e., YTYFTTVTVETLE; SEQ ID NO: 15) were substituted with alanine (A) or asparagine (N). Then, the ability of these FB-20 peptide mutants to inhibit the interaction between LRRC4B and FAM19A5 proteins was assessed, as described in Examples 3 and 4.

[2] = target: binding of FAM19A5 protein to full-length ectodomain of the LRRC4B protein (amino acids 36-576 of SEQ ID NO: 2) (Homo sapiens, UniProt Q7Z5A7); assay: Competitive inhibition assay, plate coated with full-length ectodomain of LRRC4B (amino acids 36-576); details: 20 nM peptide; for inhibition of interaction between FAM19A5 and the coated LRRC4B protein fragments (in words): statement covers both coats, LRRC4B (36-576) and LRRC4B (453-576); for Inhibition rate (%) LRRC4B (amino acids 36-576)-hFc: FAM19A5 5 ng/ml
Sequence of binding of FAM19A5 protein to full-length ectodomain of the LRRC4B protein (amino acids 36-576 of SEQ ID NO: 2) (Q7Z5A7 44-132): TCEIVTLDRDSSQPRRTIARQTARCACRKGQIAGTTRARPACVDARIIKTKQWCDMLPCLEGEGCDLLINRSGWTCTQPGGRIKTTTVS
Procedure: Next, to further assess the role that the binding domain of the LRRC4B protein has on the interaction between FAM19A5 protein and members of the LRRC4 protein family, a competitive inhibition assay was used to determine whether different LRRC4B deletion constructs from Example 2 could inhibit the binding of FAM19A5 to the full-length ectodomain of the LRRC4B protein (i.e., amino acids 36-576 of SEQ ID NO: 2; SEQ ID NO: 5). Briefly, 100 nM of the full-length ectodomain of the LRRC4B protein was used to coat a plate, and then recombinant FAM19A5 protein (5 ng/mL) was added to the plate in combination with the following LRRC4B deletion constructs (increasing concentrations): (1) LRRC4B (453-576) (i.e., construct #11 in Table 6); (2) LRRC4B (453-576) mutant (comprises alanine substitutions at positions 488 and 489 of SEQ ID NO: 2; SEQ ID NO: 16); (3) LRRC4B (484-576) (i.e., construct #12 in Table 6); (4) LRRC4B (482-576); (5) LRRC4B (482-497); and (6) LRRC4B (498-576). The plates were incubated at 37° C., and then, the amount of FAM19A5 bound to the coated LRRC4B ectodomain protein was measured using HRP-conjugated anti-FAM19A5 (1-65) antibody.
As described in Example 3, there appeared to be much similarity in the binding domains of the different members of the LRRC4 family. […] Then, recombinant FAM19A5 protein (5 ng/mL) was added in combination with one of the following: (i) LRRC4B (484-576) protein fragment, (ii) LRRC4B (453-576, AA) protein fragment, and (iii) synthetic FB-20 peptide. The plates were incubated at 37° C., and then, the amount of FAM19A5 protein bound to the coated LRRC4, LRRC4B, or LRRC4C proteins was measured using anti-FAM19A5 (1-65) antibody.
as §1
as §2, with “antibody. […]” for “antibody.”

[3] = target: T1, FAM19A5 protein (Homo sapiens, UniProt Q7Z5A7); assay: competitive inhibition ELISA; competitor: coated LRRC4B(453-576)-hFc
[4] = target: T1, FAM19A5 protein; assay: competitive inhibition ELISA; competitor: coated LRRC4B(36-576)-hFc

Sequence of binding of FAM19A5 protein to LRRC4B (amino acids 453-576)-hFc (Q7Z5A7 44-132): as above

Molecule	Inhibition rate (%) [3]	Inhibition rate (%) [4]	also measured
KNYTYFTTVTNKETQ [FB-m8dC]			Inhibition rate (%) LRRC4B (amino acids 453-576)-hFc ([1]; Table 9, deletion variants): −0.9%; inhibition of interaction between FAM19A5 and the coated LRRC4B protein fragments (in words) [2]: failed to significantly inhibit; Inhibition rate (%) LRRC4B (amino acids 36-576)-hFc ([2]; Table 9, deletion variants): 5.1%
KNYTYFTTVTVENKETQ [FB-m10dC]			Inhibition rate (%) LRRC4B (amino acids 453-576)-hFc ([1]; Table 9, deletion variants): 21.9%; Inhibition rate (%) LRRC4B (amino acids 36-576)-hFc ([2]; Table 9, deletion variants): 62.0%
KNYTYFTTVTVETNKETQ [FB-m11dC]			Inhibition rate (%) LRRC4B (amino acids 453-576)-hFc ([1]; Table 9, deletion variants): 30.4%; inhibition of interaction between FAM19A5 and the coated LRRC4B protein fragments (in words) [2]: substantially inhibited the interaction; Inhibition rate (%) LRRC4B (amino acids 36-576)-hFc ([2]; Table 9, deletion variants): 65.0%
KNYTYFTTVTVNKETQ [FB-m9dC]			Inhibition rate (%) LRRC4B (amino acids 453-576)-hFc ([1]; Table 9, deletion variants): 2.7%; inhibition of interaction between FAM19A5 and the coated LRRC4B protein fragments (in words) [2]: failed to significantly inhibit; Inhibition rate (%) LRRC4B (amino acids 36-576)-hFc ([2]; Table 9, deletion variants): 16.8%
NFSYFSTVTVETMEPSQDERTTR [FBC4C-23]			Inhibition rate (%) LRRC4B (amino acids 453-576)-hFc ([1]; Table 8): 40.4%; inhibition of interaction between FAM19A5 and the coated LRRC4B protein fragments (in words) [2]: significantly decreased the interaction; Inhibition rate (%) LRRC4B (amino acids 36-576)-hFc ([2]; Table 8): 65.7%
NYSFFTTVTVETTEISPEDTTRK [FBC4-23]			Inhibition rate (%) LRRC4B (amino acids 453-576)-hFc ([1]; Table 8): 40.4%; inhibition of interaction between FAM19A5 and the coated LRRC4B protein fragments (in words) [2]: significantly decreased the interaction; Inhibition rate (%) LRRC4B (amino acids 36-576)-hFc ([2]; Table 8): 64.1%
GYTYFTTVTVEALETQPGEE [FB-20[A11]]	50.3%	73.4%	
GYTYFTTVTAETLETQPGEE [FB-20[A9]]	3.8%	21.5%	
GYAYFTTVTVETLETQPGEE [FB-20[A2]]	-0.4%	1%	
GYTYFTAVTVETLETQPGEE [FB-20[A6]]	11%	17.9%	
GYTYFTTVNVETLETQPGEE [FB-20[N8]]	-2.4%	2.9%	
GYTYFTTVTVATLETQPGEE [FB-20[A10]]	6.4%	19.6%	
GYTYFTTVAVETLETQPGEE [FB-20[A8]]	-0.4%	3.9%	
GYTYATTVTVETLETQPGEE [FB-20[A4]]	1.5%	2.7%	
GYTYFTNVTVETLETQPGEE [FB-20[N6]]	-0.4%	-11.4%	
GYTYFTTVTNETLETQPGEE [FB-20[N9]]	6.5%	17.5%	
GYTYFTTVTVNTLETQPGEE [FB-20[N10]]	10.8%	27%	
GATYFTTVTVETLETQPGEE [FB-20[A1]]	3.6%	17.2%	
GYNYFTTVTVETLETQPGEE [FB-20[N2]]	-2%	-0.7%	
GYTYFATVTVETLETQPGEE [FB-20[A5]]	22.2%	53.4%	
GYTNFTTVTVETLETQPGEE [FB-20[N3]]	4%	-5%	
GYTAFTTVTVETLETQPGEE [FB-20[A3]]	0%	5.9%	
GNTYFTTVTVETLETQPGEE [FB-20[N1]]	3.1%	11.9%	
GYTYFNTVTVETLETQPGEE [FB-20[N5]]	30.5%	56.1%	
GYTYFTTATVETLETQPGEE [FB-20[A7]]	7.9%	26.8%	
GYTYFTTVTVENLETQPGEE [FB-20[N11]]	55.6%	74.1%	
GYTYFTTNTVETLETQPGEE [FB-20[N7]]	8.3%	24.5%	
GYTYNTTVTVETLETQPGEE [FB-20[N4]]	2.5%	-1.3%	
